Results on 1 protein are retold here after paper PMC8178886, “Recombinant laccase rPOXA 1B real-time, accelerated and molecular dynamics stability study” (BMC Biotechnology, 2021).

Substrate in this series: CCn1c(=NN=c2sc3cc(S(=O)(=O)O)ccc3n2CC)sc2cc(S(=O)(=O)O)ccc21
The experiment in a line: cells, lysate or membranes. It is filed as biochemical, Pleurotus ostreatus. The following applies: unpurified concentrate stored 12 months at 240.98 K (-32.55 °C), activity unchanged, 0.1 M citrate pH 3.0, 25 °C, ABTS 0.1-3 mM (all above the KM), air O2.

B1: rPOXA 1B (Pleurotus ostreatus) (protein)
chain: SIGPRGTLNIANKVIQPDGFYRSTVLAGGSYPGPLIKGKTGDRFQINVVNKLADTSMPVDTSIHWHGLFVKGHNWADGPAMVTQCPIVPGHSFLYDFEVPDQAGTFWYHSHLGTQYCDGLRGPLVVYSKNDPHKRLYDVDDESTVLTVGDWYHAPSLSLTGVPHPDSTLFNGLGRSLNGPASPLYVMNVVKGKRYRIRLINTSCDSNYQFSIDGHTFTVIEADGENTQPLQVDQVQIFAGQRYSLVLNANQAVGNYWIRANPNSGDPGFENQMNSAILRYKGARSIDPTTPEQNATNPLHEYNLRPLIKKPAPGKPFPGGADHNINLNFAFDPATALFTANNHTFVPPTVPVLLQILSGTRDAHDLAPAGSIYDIKLGDVVEITMPALVFAGPHPIHLHGHTFAVVRSAGSSTYNYENPVRRDVVSIGDDPTDNVTIRFVADNAGPWFLHCHIDWHLDLGFAVVFAEGVNQTAAANPVPEAWNNLCPIYNSSNPSKLLMGTNAIGRLPAPLKA
notes: recombinant, made in Pichia pastoris X33/pGAPZalphaA-LaccPost-Stop clone 1 (10 L bioreactor); unpurified enzyme concentrate without preservatives
One may read the Km as the substrate concentration at which the rate is half of its maximum. One may read the Vmax as the top rate of the reaction or transport when substrate is in excess. For the protein B1, the Km was 0.0414 ± 0.0046 mM and the Vmax worked out at 10.2 µM/min.
